# Measured values from FireProtDB (doi:10.1006/jmbi.2000.3958).
# B1: Cyclin-dependent kinases regulatory subunit, P08463 (parent)
# chain: MSKSGVPRLLTASERERLEPFIDQIHYSPRYADDEYEYRHVMLPKAMLKAIPTDYFNPETGTLRILQEEEWRGLGITQSLGWEMYEVHVPEPHILLFKREKDYQMKFSQQRGG
# Variants of: B1
# Settings: Schizosaccharomyces pombe (strain 972 / ATCC 24843); pH 7.5; 25 °C; Urea; Fluorescence; Tris 50 mM; structure 1SCE; whole UniProt chain shown
Variant,ddG of mutation (higher = less stable),denaturant m value,denaturant midpoint (higher = more stable)
MSKSGVPRLLTASERERLEPFIDQIHYSPRYADDEYEYRHVMLPKAMLKAIATDYFNPETGTLRILQEEEWRGLGITQSLGWEMYEVHVPEPHILLFKREKDYQMKFSQQRGG [P52A],2.57 kcal/mol,1.75 kcal/mol/M,2.81 M
MSKSGVPRLLTASERERLEPFIDQIHYSPRYADDEYEYRHVMLAKAMLKAIPTDYFNPETGTLRILQEEEWRGLGITQSLGWEMYEVHVPEPHILLFKREKDYQMKFSQQRGG [P44A],3.04 kcal/mol,1.56 kcal/mol/M,2.52 M
MSKSGVPRLLTASERERLEPFIDQIHYSPRYADDEYEYRHVMLPKAMLKAIPTDYFNPETGTLRILQEEEWRGLGITQSLGWEMYEVHVPEAHILLFKREKDYQMKFSQQRGG [P92A],-0.07 kcal/mol,1.78 kcal/mol/M,4.46 M
MSKSGVPRLLTASERERLEPFIDQIHYSPRYADDEYEYRHVMLPKAMLKAIPTDYFNPETGTLRILQEEEWRGLGITQSLGWEMYEVHVPEGHILLFKREKDYQMKFSQQRGG [P92G],-0.07 kcal/mol,1.55 kcal/mol/M,4.46 M
MSKSGVPRLLTASERERLEAFIDQIHYSPRYADDEYEYRHVMLPKAMLKAIPTDYFNPETGTLRILQEEEWRGLGITQSLGWEMYEVHVPEPHILLFKREKDYQMKFSQQRGG [P20A],0.3 kcal/mol,1.5 kcal/mol/M,4.23 M
MSKSGVPRLLTASERERLEPFIDQIHYSPRYADDEYEYRHVMLPKAMLKAIPTDYFNPETGTLRILQEEEWRGLGITQSLGWEMYEVHGPEPHILLFKREKDYQMKFSQQRGG [V89G],-0.81 kcal/mol,1.63 kcal/mol/M,4.93 M
MSKSGVPRLLTASERERLEPFIDQIHYSPRYADDEYEYRHVMLPKAMLKAIPTDYFNPETGTLRILQEEEWRGLGITQSLGWEMYEVHAPEPHILLFKREKDYQMKFSQQRGG [V89A],0.24 kcal/mol,1.6 kcal/mol/M,4.27 M
MSKSGVPRLLTASERERLEPFIDQIHYSPRYADDEYEYRHVMLPKAMLKAIPTDYFNPETGTLRILQEEEWRGLGITQSLGWEMYEVHVGEPHILLFKREKDYQMKFSQQRGG [P90G],-1.33 kcal/mol,1.53 kcal/mol/M,5.25 M
MSKSGVPRLLTASERERLEPFIDQIHYGPRYADDEYEYRHVMLPKAMLKAIPTDYFNPETGTLRILQEEEWRGLGITQSLGWEMYEVHVPEPHILLFKREKDYQMKFSQQRGG [S28G],-0.89 kcal/mol,1.62 kcal/mol/M,4.98 M
MSKSGVPRLLTASERERLEPFIDQIHYAPRYADDEYEYRHVMLPKAMLKAIPTDYFNPETGTLRILQEEEWRGLGITQSLGWEMYEVHVPEPHILLFKREKDYQMKFSQQRGG [S28A],0.34 kcal/mol,1.61 kcal/mol/M,4.21 M
MSKSGVPRLLTASERERLEPFIDQIHYSARYADDEYEYRHVMLPKAMLKAIPTDYFNPETGTLRILQEEEWRGLGITQSLGWEMYEVHVPEPHILLFKREKDYQMKFSQQRGG [P29A],-0.23 kcal/mol,1.39 kcal/mol/M,4.56 M
MSKSGVPRLLTASERERLEPFIDQIHYSPRYADDEYEYRHVMLPKAMLKAIPTDYFNPETGTLRILQEEEWRGLGITQSLGWEMYEVHVAEAHILLFKREKDYQMKFSQQRGG [P90A P92A],-0.93 kcal/mol,1.4 kcal/mol/M,5 M
MSKSGVPRLLTASERERLEPFIDQIHYSPRYADDEYEYRHVMLPKAMLKAIPTDYFNPETGTLRILQEEEWRGLGITQSLGWEMYEVHVGEGHILLFKREKDYQMKFSQQRGG [P90G P92G],-0.88 kcal/mol,1.46 kcal/mol/M,4.97 M
MSKSGVARLLTASERERLEPFIDQIHYSPRYADDEYEYRHVMLPKAMLKAIPTDYFNPETGTLRILQEEEWRGLGITQSLGWEMYEVHVPEPHILLFKREKDYQMKFSQQRGG [P7A],0.2 kcal/mol,1.57 kcal/mol/M,4.29 M
